Laboratory results as given in the RNAGym collection of RNA variant scans (doi:10.1073/pnas.2313332121).

B1: TPR t1 (parent)
chain: GACCAAUCUGCCCUCAGAGCUCGAGAACAUCUUCGGAUGCAGAGGAGGCAGGCUUCGGUGGCGCGAUAGCGCCAACGUCCUCAACCUCCAAUGCAUCCCACCACAUGAUGAUGCCUGAAGAGCCUUGGUUUUUUG

Variants of: B1
Test: polymerase ribozyme fitness, log enrichment relative to wild type (log ratio); higher = more active; in vitro selection for triplet polymerase activity
Summary of the method: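 Libraries of mutants in each subunit of a heterodimeric triplet polymerase ribozyme were generated by PCR and transcribed. In triplicate, each went through one in vitro selection round: annealing with biotinylated primer, partner subunit and triplets; frozen incubation at −7 °C; gel excision of extended constructs; streptavidin-bead capture; RT-PCR. Fitness, taken from Illumina sequencing of input and output libraries, is the logarithm of a genotype's enrichment over wild-type enrichment, averaged across replicates with inverse-variance weights. The logarithm is base 2, and genotypes needed ≥10 input reads and ≥1 read per output to be kept.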

| Variant | polymerase ribozyme fitness (log ratio) |
| --- | --- |
| C12U C85U A95C | -1.78 |
| C12U C15U C49A C73G C101U U133G | -1.62 |
| C12U C34U A84G C86A G113A | -6.74 |
| C12U C86G | -0.52 |
| C12U G44A C88U U92G U112A U116G G135A | -5.19 |
| C12U C13G | -0.258 |
| C12U G39A C56A G71A | -4.31 |
| C13A C49U C53G G61U | -3.09 |
| C13A C73A | -1.36 |
| C12U G61U C62U G113A | -4.94 |
| C13A A29G U55A C76G C101G C102A U112C | -8.04 |
| C12U C40A C99U | -4.01 |
| C12U G71C C97U | -0.967 |
| C12U G19C | -1.79 |
| C12U G45U C82G C97G | -5.36 |
| C12U G45U C70G U132C | -6.34 |
| C12U A74C C79U A121U | 1.34 |
| C12U C34A G63A | -5.16 |
| C12U C34A G63C | -3.05 |
| C12U A74G U87A | -0.554 |
| C13A A50C G52U G93C | -4.43 |
| C13A C40U C62A C123G | -0.545 |
| C13A A108G | -5.35 |
| C12U U21A C40G C89G A121G | -1.38 |

| Variant | polymerase ribozyme fitness (log ratio) |
| --- | --- |
| C12U C70U | 0.3 |
| C12U C70G | -2.05 |
| C12U C70A | -0.649 |
| C12U C64U C72A U87C | -0.223 |
| C12U G42A G61A G110A | -4.38 |
| C12U G93U | -0.871 |
| C12U G93A | -0.0469 |
| C12U G36C A46U U112C G127U | 0.627 |
| C12U G57A G63A G113C | -5.3 |
| C12U U38C G71U C101G | -2.11 |
| C13A A41C C73G | -4.43 |
| C13A C86U C124G | 1.07 |
| C12U G47U A119C C123A | -2.6 |
| C12U C98A | -4.29 |
| C12U U21A G35A A74G | -4.28 |
| C12U C20G G63U U106C | -6.59 |
| C12U G42U G52U A66U C72U C115A G117A | -6.98 |
| C13A A84U G93U G117U | -6.66 |
| C12U C115A | 0.202 |
| C12U G48C G63U U130C | -1 |
| C12U C124U | 1.66 |
| C13A A26G C53U C104U | -5.09 |
| C13A C15A G47A C123U G127C | -3.95 |
| C13A C40A G52A C56U | -2.98 |

| Variant | polymerase ribozyme fitness (log ratio) |
| --- | --- |
| C12U G39U C115A | -0.243 |
| C12U C15U G17A A83C C85A G117U | -2.34 |
| C12U G17C C72G C82G U112C C123U U131C | -3.8 |
| C13A C79A | -3.23 |
| C12U C13G C49U C53U G127A | -3.32 |
| C12U C22U A46U | -4.76 |
| C13A C70U C114G | -6.69 |
| C13A C53U G120U | -1.1 |
| C12U C49A C73U U92C | -1 |
| C12U G52U A68G A74G | -3.85 |
| C13A A18U G42U C123G | -0.827 |
| C13A C40A G71A | -4.02 |
| C12U C20A G120A U132C | -1.48 |
| C12U G19C A46U U112A | -0.273 |
| C12U C13G A37U U54G C73U C123U | 1.09 |
| C12U U87C A103U G120A | -1.81 |
| C12U G36U C94U A111G U116A | -2.07 |
| C12U C34U C72A U81C C102U U109G | -5.97 |
| C12U C13U A74U C97A C123U C124A | -4.56 |
| C12U G39A C85U | -1.02 |
| C13A C28U | -3.53 |
| C13A C79G C123A U129G | -3.45 |
| C13A C76U C82A A103U G110C C114A G117C C123U | -7 |
| C13A A26C C56A G60U C88U G113U C115U | -6.95 |

| Variant | polymerase ribozyme fitness (log ratio) |
| --- | --- |
| C12U G48U C94U | -1.04 |
| C13A A16G U133G | -2.57 |
| C12U C20U A46U U54C C56A U87G A91U | -3.03 |
| C13A C70G G93A C104A G110C | -6.34 |
| C12U C13G A37U U54G C80A | -4.65 |
| C12U G39C | -0.515 |
| C12U G39U | -0.353 |
| C12U C15A G52A | -0.639 |
| C12U G71A U92G U96A | -5.06 |
| C12U U78G U96A G120U U131A | -0.178 |
| C12U C40U C104A | -2.12 |
| C12U C72G C86U C104U G122A | -0.0421 |
| C13A C20U C40U C72A A83C G117U C124A | -4.4 |
| C13A A18C G36A G42U A84C | -4.45 |
| C12U C20U U21A G25U A43U C56A C115A A121U U130A | -8.29 |
| C12U C123G | 2.68 |
| C13A A16U | -0.236 |
| C12U C31U | -4.34 |
| C13A C72U U78A | -2.1 |
| C12U C15A | -0.528 |
| C12U G44A | -0.615 |
| C13A A43G | -3.45 |
| C12U C56U G58A G71U U112C G122A | 0.796 |
| C12U C49A C115U | -1.47 |

| Variant | polymerase ribozyme fitness (log ratio) |
| --- | --- |
| C12U C70A C88U U129C | -1.99 |
| C12U U33G | -5.61 |
| C12U G39U G61C C88G | -3.48 |
| C13A C20U | -3.77 |
| C12U G39U C62A U78A | -1.41 |
| C13A C15G U106A | -3.48 |
| C12U C97A | -3.91 |
| C13A A16U U116G | -1.13 |
| C13A A27C | -3.81 |
| C13A A27U | -3.33 |
| C12U C13G C82A G117A | -2.59 |
| C13A C53U C114U G120A | -3.61 |
| C12U C56U G60U | -4.18 |
| C12U G42A C97U | -3.11 |
| C12U A66U C123A | 0.936 |
| C12U C34U G61A C104U U132A U133G | -3.5 |
| C12U C72U C86U U112C | 1.05 |
| C12U C114A | -1.12 |
| C13A C49G G122U C124G | -0.569 |
| C13A A27U G47U | -3.3 |
| C12U A50U U59G G63A A119U | -2.52 |
| C12U U81G | -2.24 |
| C12U U32C C56G | -0.144 |
| C13A A24G G58C C115A | -3.96 |

| Variant | polymerase ribozyme fitness (log ratio) |
| --- | --- |
| C12U U14C C15G A41C U112A | -2.25 |
| C12U C56A G113A | -0.59 |
| C12U U116A | -1.04 |
| C12U G25C C94G G113A | -6.74 |
| C12U A84C G120U | 1.69 |
| C12U C62A U81G C115A | -2.91 |
| C12U G71U | 0.0835 |
| C13A C82A C94U G110A | -3.09 |
| C12U U109G | -3.6 |
| C12U G44A U131A | -1.07 |
| C12U G113C G120U | -3.12 |
| C13A C85U C102U | -4.16 |
| C13A C82G | -1.93 |
| C13A C82U | -1.59 |
| C12U G51A | -2.09 |
| C12U G63U A75C | -0.74 |
| C13A A95G U109A | -6.28 |
| C12U C80U C102U | -2.35 |
| C13A A91C U96C | -2.79 |
| C13A C64U C115A | -2.72 |
| C13A C49G | -1.06 |
| C13A C49U | -1.33 |
| C12U A83C C114A C123G C124G | -0.26 |
| C13A A27U C101U | -4.94 |

| Variant | polymerase ribozyme fitness (log ratio) |
| --- | --- |
| C12U C86A C98U | -0.708 |
| C12U G61A U92A U126A | -4.38 |
| C12U G36A | -0.19 |
| C13A A105U | -3.91 |
| C12U G45U U132C | -1.19 |
| C12U G36A A66C U78C C82G A121U | -0.787 |
| C12U G57A G113C | -2.33 |
| C12U C20G U106C | -3.81 |
| C12U G61C A119U | -1.74 |
| C12U G52A C86U C97A | -4.13 |
| C12U A84C | 0.463 |
| C12U G17A U59A G61C C124A | -1.65 |
| C12U C73U C97A G110U C115A C124G | -6.74 |
| C12U C97G C104U | -2.92 |
| C12U G17U A50G U112A | 0.845 |
| C13A A37C C73U A118U | -1.72 |
| C12U G47U | -0.627 |
| C12U G60U A90G C99U | -2.17 |
| C12U C85U U112C | 0.732 |
| C12U C49U G63U | -1.49 |
| C13A C56G C73U G77U | -1.96 |
| C12U G113U | -1.65 |
| C12U G113A | 0.642 |
